The source of these data is patent publication US20230079757A1, “METHODS AND MATERIALS FOR TREATING CANCER” (Mayo Foundation for Medical Education and Research, priority 2020, published 2023).

The labels stand for the following.
T1: GST-tagged STAT2 DNA binding domain (a.a. 312-486) (UniProt P52630 312-486)
T1 construct: range 312-486; also called STAT2-DBD; STAT2 DBD; not shown: GST tag
T1 sequence (looked up): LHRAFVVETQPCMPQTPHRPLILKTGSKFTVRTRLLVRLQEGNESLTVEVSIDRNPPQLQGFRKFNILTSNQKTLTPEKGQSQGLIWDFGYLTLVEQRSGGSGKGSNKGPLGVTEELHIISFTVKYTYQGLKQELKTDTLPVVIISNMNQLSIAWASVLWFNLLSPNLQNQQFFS

T2: STAT1 homodimer (human, UniProt P42224 2-750)
T2 construct: It was inferred from co-IP after IFNγ treatment and was not purified; also called STAT1/STAT1 homodimer; STAT1-STAT1 complex
T2 sequence (looked up): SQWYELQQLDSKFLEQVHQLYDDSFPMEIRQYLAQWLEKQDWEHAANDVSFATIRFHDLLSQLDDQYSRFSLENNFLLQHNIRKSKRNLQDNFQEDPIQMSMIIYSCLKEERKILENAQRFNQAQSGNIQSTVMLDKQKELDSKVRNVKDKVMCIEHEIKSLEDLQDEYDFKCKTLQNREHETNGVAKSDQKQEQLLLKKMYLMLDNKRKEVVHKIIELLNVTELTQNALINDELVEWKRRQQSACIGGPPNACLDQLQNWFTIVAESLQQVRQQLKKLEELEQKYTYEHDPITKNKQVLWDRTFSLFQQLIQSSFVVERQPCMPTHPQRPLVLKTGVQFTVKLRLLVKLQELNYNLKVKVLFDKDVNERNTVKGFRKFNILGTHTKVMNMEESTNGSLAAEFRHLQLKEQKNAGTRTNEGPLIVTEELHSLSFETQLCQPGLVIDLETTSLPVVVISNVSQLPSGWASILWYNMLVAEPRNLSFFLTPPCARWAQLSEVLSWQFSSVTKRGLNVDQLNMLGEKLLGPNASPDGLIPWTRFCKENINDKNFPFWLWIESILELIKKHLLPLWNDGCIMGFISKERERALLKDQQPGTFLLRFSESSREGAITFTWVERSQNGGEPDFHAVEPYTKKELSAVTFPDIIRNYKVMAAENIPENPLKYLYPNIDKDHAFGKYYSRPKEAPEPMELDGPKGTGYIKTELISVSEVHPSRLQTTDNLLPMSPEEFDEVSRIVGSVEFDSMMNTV

B1: IRF9 (other, UniProt Q00978 1-393, looked up)
chain: MASGRARCTRKLRNWVVEQVESGQFPGVCWDDTAKTMFRIPWKHAGKQDFREDQDAAFFKAWAIFKGKYKEGDTGGPAVWKTRLRCALNKSSEFKEVPERGRMDVAEPYKVYQLLPPGIVSGQPGTQKVPSKRQHSSVSSERKEEEDAMQNCTLSPSVLQDSLNNEEEGASGGAVHSDIGSSSSSSSPEPQEVTDTTEAPFQGDQRSLEFLLPPEPDYSLLLTFIYNGRVVGEAQVQSLDCRLVAEPSGSESSMEQVLFPKPGPLEPTQRLLSQLERGILVASNPRGLFVQRLCPIPISWNAPQAPPGPGPHLLPSNECVELFRTAYFCRDLVRYFQGLGPPPKFQVTLNFWEESHGSSHTPQNLITVKMEQAFARYLLEQTPEQQAAILSLV
B2: STAT1 (other, human, UniProt P42224 2-750, looked up)
chain: T2 sequence (looked up)
notes: Cells were stimulated with IFN; also called endogenous STAT1
B3: FOXA1 forkhead domain-containing region (FKCR, a.a. 141-294) (other, UniProt P55317 141-294, looked up)
chain: MAYAPSNLGRSRAGGGGDAKTFKRSYPHAKPPYSYISLITMAIQQAPSKMLTLSEIYQWIMDLFPYYRQNQQRWQNSIRHSLSFNDCFVKVARSPDKPGKGSYWTLHPDSGNMFENGCYLRRQKRFKCEKQPGAGGGGGSGSGGSGAKGGPESR
notes: Expressed in 293T cells, and the lysate was used for GST pulldown; also called FOXA1-FKCR
B4: FOXA1 (Forkhead box protein A1), wild type (other, human, UniProt P55317 1-472, looked up)
chain: MLGTVKMEGHETSDWNSYYADTQEAYSSVPVSNMNSGLGSMNSMNTYMTMNTMTTSGNMTPASFNMSYANPGLGAGLSPGAVAGMPGGSAGAMNSMTAAGVTAMGTALSPSGMGAMGAQQAASMNGLGPYAAAMNPCMSPMAYAPSNLGRSRAGGGGDAKTFKRSYPHAKPPYSYISLITMAIQQAPSKMLTLSEIYQWIMDLFPYYRQNQQRWQNSIRHSLSFNDCFVKVARSPDKPGKGSYWTLHPDSGNMFENGCYLRRQKRFKCEKQPGAGGGGGSGSGGSGAKGGPESRKDPSGASNPSADSPLHRGVHGKTGQLEGAPAPGPAASPQTLDHSGATATGGASELKTPASSTAPPISSGPGALASVPASHPAHGLAPHESQLHLKGDPHYSFNHPFSINNLMSSSEQQHKLDFKAYEQALQYSPYGSTLPASLPLGSASVTTRSPIEPSALEPAYYQGVYSRPVLNTS
notes: also called FOXA1-WT; WT FOXA1

The target in series [1] is T3, STAT1/STAT2 heterodimer (human, UniProt P42224 2-750; P52630 1-851).
T3 construct: It was inferred from co-IP after IFNα treatment and was not purified; also called STAT2/STAT1 heterodimer
Nature of the series: co-IP in 293T cells treated with IFNα (FIG. 9D). Here is the method:
(§1) For extraction of nuclear and cytoplasmic proteins from cells, NE-PER Nuclear and Cytoplasmic Extraction Kit (# 78835, Thermo Fisher Scientific) was used according to the manufacturer's instructions. IP buffer (50 mM Tris-HCl pH7.5, 150 mM NaCl, 1% NP40, 0.5% Sodium Deoxycholate) was used to extract whole cell lysate. P rotein A/G agarose (# 20421, Thermo Fisher Scientific) was used for immunoprecipitation of FOXA1 (# ab23738, Abcam) and Flag-tag (dilution 1:1000; # F1804, Sigma-Aldrich). Monoclonal anti-HA agarose (# A2095, Sigma-Aldrich) was used for HA-tag Co-IP. For glutathione-S-transferase (GST) pulldown assay, GST-tagged STAT2 fragment expressed at E. coli was purified by Glutathione Sepharose 4B beads (# 84-239, Genesee Scientific) and incubated with lysate from 293T cells expressing interested proteins, and GST pulldown assays were performed. For protein co-IP, samples eluted in IP butter were incubated with agarose beads and antibodies overnight at 4° C. and washed with 6 times with IP buffer in the following day. Samples were boiled for 10 minutes in 50 μl sample buffer (2% SDS, 10% glycerol, 10% β-mercaptoethanol, bromophenol blue and Tris-HCl, pH 6.8) and subjected to Western blotting.

Series [2] addresses T4, STAT2 (human, UniProt P52630 1-851).
T4 construct: also called endogenous STAT2
Nature of the series: co-IP in 293T cells treated with IFNα (FIG. 9D). Here is the method: as §1

Series [3] concerns the molecule itself. Description: co-IP in 293T cells treated with IFNγ (FIG. 9D). Here is the method: as §1
Series [4] addresses T1, GST-tagged STAT2 DNA binding domain …. Nature of the series: mutagenesis and GST pull down (FIG. 9E). Here is the method:
as §1

Series [5] has as its target T4, STAT2. Nature of the series: co-IP of endogenous proteins in LNCaP cells (FIG. 8A). The protocol:
as §1

The target in the series “STAT1” is B2. Description: co-IP of endogenous proteins, nuclear fraction (FIG. 8A, 9A, 9B). Here is the method: as §1
Another series has as its target T2, STAT1 homodimer. Nature of the series: co-IP of endogenous proteins after IFNγ treatment (FIG. 8A, 9A, 9B). The protocol:
as §1

For series [6], the target named is T3, STAT1/STAT2 heterodimer. Description: co-IP of endogenous proteins after IFNα treatment (FIG. 8A, 9A, 9B). The protocol:
as §1

T4 sequence (P52630 whole entry): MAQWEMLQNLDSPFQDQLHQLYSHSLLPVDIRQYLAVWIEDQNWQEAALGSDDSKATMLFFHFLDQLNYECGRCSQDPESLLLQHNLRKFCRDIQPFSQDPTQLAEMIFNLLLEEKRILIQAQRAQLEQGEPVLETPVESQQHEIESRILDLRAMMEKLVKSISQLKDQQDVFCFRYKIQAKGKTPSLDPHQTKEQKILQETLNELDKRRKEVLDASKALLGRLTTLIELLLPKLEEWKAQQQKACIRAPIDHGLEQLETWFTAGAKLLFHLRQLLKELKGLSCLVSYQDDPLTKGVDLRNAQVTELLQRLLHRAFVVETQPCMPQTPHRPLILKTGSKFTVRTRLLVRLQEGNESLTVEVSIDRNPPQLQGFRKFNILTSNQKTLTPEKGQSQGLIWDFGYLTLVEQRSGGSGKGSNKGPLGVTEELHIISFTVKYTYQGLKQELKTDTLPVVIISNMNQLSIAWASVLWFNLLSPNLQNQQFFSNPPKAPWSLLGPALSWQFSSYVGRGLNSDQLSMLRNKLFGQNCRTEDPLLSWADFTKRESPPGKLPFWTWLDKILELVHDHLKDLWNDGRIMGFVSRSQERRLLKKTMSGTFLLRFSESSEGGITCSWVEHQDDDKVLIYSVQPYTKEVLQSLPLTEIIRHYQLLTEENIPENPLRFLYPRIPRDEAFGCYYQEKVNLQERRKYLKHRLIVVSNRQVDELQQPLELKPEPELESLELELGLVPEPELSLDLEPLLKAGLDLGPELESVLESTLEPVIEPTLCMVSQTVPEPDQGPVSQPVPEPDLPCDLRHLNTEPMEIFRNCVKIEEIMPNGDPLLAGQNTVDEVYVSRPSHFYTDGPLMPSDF
T3 sequence (P52630 whole entry, one chain of several): as the sequence (P52630 whole entry) above

With B1, the binding result with STAT1/STAT2 heterodimer [1] is “binds”.

Regarding B2, the binding result (with STAT2 [2]; in series [3]) was “binds” in each case.

With B3, the binding result in series [4] is reported as “binds”.

With B4, the binding result with STAT2 [5], in the series with STAT1, in the series with STAT1 homodimer and with STAT1/STAT2 heterodimer [6] was “binds” throughout.
